The text below walks through data of paper PMC2955198 (Cell, 2010).

First the molecules themselves.
T1: Dsn1 (subunit of the purified MIND complex) (S. cerevisiae, UniProt P40568 1-576)
T1 sequence (looked up): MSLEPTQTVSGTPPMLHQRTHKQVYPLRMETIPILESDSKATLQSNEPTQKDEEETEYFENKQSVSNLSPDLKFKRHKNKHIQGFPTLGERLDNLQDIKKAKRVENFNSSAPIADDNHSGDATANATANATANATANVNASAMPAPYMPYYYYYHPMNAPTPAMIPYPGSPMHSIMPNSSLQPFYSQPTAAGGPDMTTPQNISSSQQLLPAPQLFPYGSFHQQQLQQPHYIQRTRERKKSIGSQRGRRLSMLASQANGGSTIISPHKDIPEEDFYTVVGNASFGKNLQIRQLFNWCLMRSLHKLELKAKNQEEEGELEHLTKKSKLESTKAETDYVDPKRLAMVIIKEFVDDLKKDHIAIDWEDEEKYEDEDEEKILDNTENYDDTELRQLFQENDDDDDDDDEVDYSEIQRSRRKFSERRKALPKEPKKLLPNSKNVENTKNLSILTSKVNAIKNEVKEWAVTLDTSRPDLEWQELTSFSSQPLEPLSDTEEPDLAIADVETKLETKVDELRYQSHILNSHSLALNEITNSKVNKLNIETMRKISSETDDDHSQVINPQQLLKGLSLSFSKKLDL

B1: Nnf1 (subunit of the purified MIND complex) (natural protein, S. cerevisiae, UniProt P47149 1-201, looked up)
chain: MVNSHGIRYIRLKQVFNRALDQSISKLQSWDKVSSCFPQYVNSKQGAINVANCQRQLTEFWTELCQREFKEIMEERNVEQKLNELDELILEAKERYTDRDQDEVNKGPAIDELSSKELVECHLYSQRMHAIHEIDERLAKVNEMNDQLAQELKDLETQVEVEKNEIGKMYDEYLGSHTDQPANVLLVQSLNDMVLELKENY
B2: Lrs4 1-130 (domain or fragment, S. cerevisiae, UniProt Q04087 1-130, looked up)
chain: MTTLLQLLSNYYKAKLDSERIYNEYVQSQYEFASLDKLNNNKGDPKKVVDETLFLQRQIAQLNKQLQLSFQENEKLLSVQKNQKALYQSKLSSKDAFIDDLKLKLKVEQISVDKHNKERTPSTGRDEQQR
B3: Mde4 1-77 (domain or fragment)
chain: MSTISTSTDSKLDNLGLSVTSRRNQILFYLSKALNLAHLLRSDSLQKSFLDALKQSATDSELLHKNLDEIKFLQNEK
B4: Mde4 1-231 (domain or fragment)
chain: MSTISTSTDSKLDNLGLSVTSRRNQILFYLSKALNLAHLLRSDSLQKSFLDALKQSATDSELLHKNLDEIKFLQNEKLNNEKLLEQEQNEANDYRLKVERLEHKISDYVQEINSLNSQLQIQKSNPEKHEDAVSQNRLRGSLDTVSSPSKTHKANKDEKATRLHLIIANLKKALKEKDAEVLNLQSHVSSKESELDRFKIKLETEESNWKVRLQVLESKLATQDRKLRMQK
B5: Lrs4 1-102 (domain or fragment, S. cerevisiae, UniProt Q04087 1-102, looked up)
chain: MTTLLQLLSNYYKAKLDSERIYNEYVQSQYEFASLDKLNNNKGDPKKVVDETLFLQRQIAQLNKQLQLSFQENEKLLSVQKNQKALYQSKLSSKDAFIDDLK
B6: Mde4 1-125 (domain or fragment)
chain: MSTISTSTDSKLDNLGLSVTSRRNQILFYLSKALNLAHLLRSDSLQKSFLDALKQSATDSELLHKNLDEIKFLQNEKLNNEKLLEQEQNEANDYRLKVERLEHKISDYVQEINSLNSQLQIQKSN
B7: Mtw1 (subunit of the purified MIND complex) (natural protein, S. cerevisiae, UniProt P39731 1-289, looked up)
chain: MSAPTMRSTSILTEHLGYPPISLVDDIINAVNEIMYKCTAAMEKYLLSKSKIGEEDYGEEIKSGVAKLESLLENSVDKNFDKLELYVLRNVLRIPEEYLDANVFRLENQKDLVIVDENELKKSEEKLREKVNDVELAFKKNEMLLKRVTKVKRLLFTIRGFKQKLNELLKCKDDVQLQKILESLKPIDDTMTLLTDSLRKLYVDSESTSSTEEVEALLQRLKTNGKQNNKDFRTRYIDIRTNNVLRKLGLLGDKEDEKQSAKPDARTQAGDIVSIDIEEPQLDLLDDVL
B8: Mde4 full-length (natural protein)
chain: MSTISTSTDSKLDNLGLSVTSRRNQILFYLSKALNLAHLLRSDSLQKSFLDALKQSATDSELLHKNLDEIKFLQNEKLNNEKLLEQEQNEANDYRLKVERLEHKISDYVQEINSLNSQLQIQKSNPEKHEDAVSQNRLRGSLDTVSSPSKTHKANKDEKATRLHLIIANLKKALKEKDAEVLNLQSHVSSKESELDRFKIKLETEESNWKVRLQVLESKLATQDRKLRMQKKSTERKSLLVSPRVSSPKLFSPSKQAIMGTRQPNATSGSPLSVTPFLQKTSTSIGLSSSPPQSSPSAQSSQPFSRDKYPHSMTVSPSNARYLKKHLDDTIPSNVSDINHNDHLKIPQSPSSLSPSKIPIRKKRKLKDTVSNCEFTEEDSESSFLLETIQPTKSTLRRSISPLKKRNDEINELKKGFTMKK
B9: Lrs4 full-length (natural protein, S. cerevisiae, UniProt Q04087 1-347, looked up)
chain: MTTLLQLLSNYYKAKLDSERIYNEYVQSQYEFASLDKLNNNKGDPKKVVDETLFLQRQIAQLNKQLQLSFQENEKLLSVQKNQKALYQSKLSSKDAFIDDLKLKLKVEQISVDKHNKERTPSTGRDEQQRNSKAAHTSKPTIHLLSPIVNRDKPNNQTNDRGGNDPDSPTSQRRSRGLRSLLSSGKNTIFDSISKNLDDEINENAHIRNDTTSSKIAGKSPSRLSALQKSPELRKERNNMILKEHILRSKDDQNITSSRKLDNIELSSIGDSTAMTSRSSTVNANDILGNEENDGITKLKRVNKLTSSPVKRDCSTNKKRKLTKQRIATLPNSDEELSNNLNVDEFV
B10: Csm1 1-181 (domain or fragment, S. cerevisiae, UniProt P25651 1-181, looked up)
chain: MDPLTVYKNSVKQQIDSADLLVANLVNENFVLSEKLDTKATEIKQLQKQIDSLNAQVKELKTQTSQQAENSEVIKDLYEYLCNVRVHKSYEDDSGLWFDISQGTHSGGSSDDYSIMDYKLGFVKGQAQVTEVIYAPVLKQRSTEELYSLQSKLPEYLFETLSFPLSSLNQFYNKIAKSLNK
B11: Csm1 69-190 (domain or fragment, S. cerevisiae, UniProt P25651 69-190, looked up)
chain: ENSEVIKDLYEYLCNVRVHKSYEDDSGLWFDISQGTHSGGSSDDYSIMDYKLGFVKGQAQVTEVIYAPVLKQRSTEELYSLQSKLPEYLFETLSFPLSSLNQFYNKIAKSLNKKREKKDETE
B12: S. cerevisiae Csm1 full-length (natural protein, UniProt P25651 1-190, looked up)
chain: MDPLTVYKNSVKQQIDSADLLVANLVNENFVLSEKLDTKATEIKQLQKQIDSLNAQVKELKTQTSQQAENSEVIKDLYEYLCNVRVHKSYEDDSGLWFDISQGTHSGGSSDDYSIMDYKLGFVKGQAQVTEVIYAPVLKQRSTEELYSLQSKLPEYLFETLSFPLSSLNQFYNKIAKSLNKKREKKDETE

In one data set the target is Pcs1 85-222 (S. pombe) (UniProt O13684). The experiment in a line: AUC.
Data set [1] concerns the target S. pombe Pcs1 full-length (S. pombe) (UniProt O13684). The experiment in a line: AUC.
Data set [2] deals with B7. Put plainly: co-purification of a recombinant complex.
Data set [3] deals with B12. Put plainly: AUC.
Data set [4] addresses S. pombe Pcs1 full-length (S. pombe) (UniProt O13684). The experiment in a line: AUC. This is another data set of the same source.
Data set [5] concerns the target T1, Dsn1 (subunit of the purified MIND …). Put plainly: co-purification of a recombinant complex.
The data set “AUC” concerns the molecule itself. The experiment in a line: AUC.
The data set “Csm1 1-181” addresses B10. The experiment in a line: AUC.

Values joined by “and” are separate entries in the source; they are usually repeats but may differ in a detail not shown here. Equal values may be shown once.

One may read the stoichiometry N as a count of units in the complex or per binding partner.

Chain of S. pombe Pcs1 full-length (S. pombe) (O13684 whole entry): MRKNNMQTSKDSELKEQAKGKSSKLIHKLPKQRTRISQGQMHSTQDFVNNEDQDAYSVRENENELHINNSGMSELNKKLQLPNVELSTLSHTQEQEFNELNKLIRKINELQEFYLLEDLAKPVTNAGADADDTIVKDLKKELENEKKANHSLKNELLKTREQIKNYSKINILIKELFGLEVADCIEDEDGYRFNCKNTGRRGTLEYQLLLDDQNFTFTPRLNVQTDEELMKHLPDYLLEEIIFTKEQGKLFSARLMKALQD

Regarding “Pcs1 85-222 (from UniProt O13684 85-222) (domain or fragment)”, the stoichiometry N with Pcs1 85-222 (S. pombe) came to 2. “S. pombe Pcs1 full-length (from UniProt O13684 1-261) (natural protein)” registered a stoichiometry N in data set [1] of 2. As to B1, the binding result in data set [2] is “binds”. B2: the “stoichiometry N” value in data set [3] was 4 copies of Csm1 in the complex and 2 copies of Lrs4 in the complex.

In data set [4], B3 gave a stoichiometry N (copies of Mde4 in the complex) of 2 and a stoichiometry N (copies of Pcs1 in the complex) of 4. On the same counts, the results for B4 are 2 and 4. On to B5, for which the “stoichiometry N” value in data set [3] was 4 copies of Csm1 in the complex and 2 copies of Lrs4 in the complex. Regarding B6, in data set [4], the stoichiometry N (copies of Mde4 in the complex) was determined as 2 and the stoichiometry N (copies of Pcs1 in the complex) was 4. As for B7, the binding result in data set [5] is recorded as “binds”. Turning to B8, in data set [4], the stoichiometry N (copies of Mde4 in the complex) stood at 2 and the stoichiometry N (copies of Pcs1 in the complex) was found to be 4. B9: the “stoichiometry N” value in data set [3] is 4 copies of Csm1 in the complex and 2 copies of Lrs4 in the complex. B10: the “stoichiometry N” value in the data set “AUC” was 2. Turning to TTLLQLLSNYYKAKLDSERIYNEYVQSQY (peptide, UniProt Q04087 2-30, looked up) [peptide containing Lrs4 residues 2-30], the “stoichiometry N” value with Csm1 1-181 is 4 copies of Csm1 in the complex and 2 copies of Lrs4 in the complex. B11: the “stoichiometry N” value in “AUC” was determined as 2.

Turning to B12, the “stoichiometry N” value in “AUC” stood at 2.
